Where no end group is shown, it is not given here. [ ]: non-standard residue; d: D form. pS = N[C@@H](COP(=O)(O)O)C(=O)O
How the values were obtained:
[1] = target: SHARP (human SPOC domain) SPOC domain, 3477-3664 (UniProt Q96T58); experiment: anti-Flag co-IP, NCoR blot; settings: reference: NCoR-C wild type; sites S2449,S2451
ITC = substrate: SPOC domain from murine SHARP, residues 3474-3643 (mouse) (UniProt Q62504); experiment: ITC

binding against the reference [1] | Kd (ITC) | Molecule
lost | – | NCoR NCoR-C, 1942-2453 (from UniProt Q60974) NCoR-C S2449A/S2451A
– | 50 nM | REPAPLLSAQYETL[pS]D[pS]DD [NCoR C-terminal peptide, double-phosphorylated]
